Consider one molecule from PMC10837151, “Asymmetric nucleosome PARylation at DNA breaks mediates directional nucleosome sliding by ALC1” (Nature Communications, 2024).

In this assay the target is T1, histone H4 (Xenopus laevis) (Xenopus laevis, UniProt P62799 1-103).
T1 construct: histone H4, Xenopus laevis, recombinant; In the cryo-EM structure H4 stood within the nucleosome m2; source: bought: Histone Source Protein Expression and Purification Facility, Colorado State University (purified recombinant)
Put plainly: cryo-EM structure; modified nucleosomes at 1 µM, ALC1 at 6 µM, ADP-BeF3 at 1 mM, incubated 60 minutes on ice before vitrification. The settings on record: both partners purified.

B1: ALC1 (Amplified in Liver Cancer 1), wild-type construct (16-879) (enzyme)
chain: FLLRLHTEGRAEAARVQEQDLRQWGLTGIHLRSYQLEGVNWLAQRFHCQNGCILGDEMGLGKTCQTIALFIYLAGRLNDEGPFLILCPLSVLSNWKEEMQRFAPGLSCVTYAGDKEERACLQQDLKQESRFHVLLTTYEICLKDASFLKSFPWSVLVVDEAHRLKNQSSLLHKTLSEFSVVFSLLLTGTPIQNSLQELYSLLSFVEPDLFSKEEVGDFIQRYQDIEKESESASELHKLLQPFLLRRVKAEVATELPKKTEVVIYHGMSALQKKYYKAILMKDLDAFENETAKKVKLQNILSQLRKCVDHPYLFDGVEPEPFEVGDHLTEASGKLHLLDKLLAFLYSGGHRVLLFSQMTQMLDILQDYMDYRGYSYERVDGSVRGEERHLAIKNFGQQPIFVFLLSTRAGGVGMNLTAADTVIFVDSDFNPQNDLQAAARAHRIGQNKSVKVIRLIGRDTVEEIVYRKAASKLQLTNMIIEGGHFTLGAQKPAADADLQLSEILKFGLDKLLASEGSTMDEIDLESILGETKDGQWVSDALPAAEGGSRDQEEGKNHMYLFEGKDYSKEPSKEDRKSFEQLVNLQKTLLEKASQEGRSLRNKGSVLIPGLVEGSTKRKRVLSPEELEDRQKKRQEAAAKRRRLIEEKKRQKEEAEHKKKMAWWESNNYQSFCLPSEESEPEDLENGEESSAELDYQDPDATSLKYVSGDVTHPQAGAEDALIVHCVDDSGHWGRGGLFTALEKRSAEPRKIYELAGKMKDLSLGGVLLFPVDDKESRNKGQDLLALIVAQHRDRSNVLSGIKMAALEEGLKKIFLAAKKKKASVHLPRIGHATKGFNWYGTERLIRKHLAARGIPTYIYYFPRSK
notes: human ALC1/CHD1L, residues 16-879; The cryo-EM methods call the protein ALC1^fl, while the only construct described is 16-879; also called CHD1L; ALC1/CHD1L; source: E. coli Rosetta 2 (DE3), purified (HisTrap, Q/SP ion exchange, Superdex 200)
For the molecule B1, the binding result is recorded as “binds”.
